The subject of assay [1] is TF-1 Cells. In words: TF-1 proliferation assay (MTS, viable cell number), EPO-like activity. As to conditions: normalized plots. The class given is cell-based, human. The protocol:
An experiment was performed in a standard TF-1 cell assay as recommended by the European Pharmacopoe for the determination of EPO-like activity in vitro (please also see below). Basically, TF-1 cells (their proliferation being dependent from the presence of EPO-like activity) are cultured in the presence various concentrations of EPO or EPO-mimetic substances. The resulting cell numbers are quantified using colorimetric MTT-assay and photometric measurements.
In a TF-1 proliferation assay, TF-1 cells are seeded and cultured for several days in varying concentrations of EPO or EPO mimetic peptides in a multi-well plate.
For optimal results TF-1 cells should be cultured for two days in the absence of any cytokine (starved) before starting the assay. Three days after starting the assay, cell proliferation is measured indirectly by assaying the number of viable cells.
A tetrazolium reagent, called MTS, is added which is reduced to coloured formazan. This reaction depends on NADH and NADPH, in other words depends on mitochondrial activity. The amount of formazan is measured spectrophotometrically. Using a range of known cell numbers for calibration, it is possible to determine the absolute number of viable cells present under each condition. The principal design is also illustrated in FIG. 24.
The activity of a certain agent in this assay is determined by: • 1. assessing whether this agent causes an increase in the number of viable cells at a certain concentration, and • 2. at which concentration this agent exerts a half-maximum effect (determination of the EC50).

The test system of assay [2] is TF-1 Cells. Description: Proliferation assay with TF-1 cells by MTT (printed MU), peptide monomers. The class given is cell-based, human. As to conditions: TF-1 proliferation, MTT-assay data, GraphPad dose-response. The protocol: Proliferation Assay with TF-1 Cells by MU
TF-1 Cells in logarithmic growth phase (˜2.10^5-1.10^6 cells/ml; RPMI medium; 20% fetal calf serum; supplemented with Penicillin, streptomycin, L-Glutamine; 0.5 ng/ml Interleukin 3) are washed (centrifuge 5 min. 1500 rpm and resuspended in RPMI complete without IL3 at 500.000 cells/ml) and precultured before start of the assay for 24 h without IL-3. At the next day the cells are seeded in 24- or 96-well plates usually using at least 6 concentrations and 4 wells per concentration containing at least 10.000 cells/well per agent to be tested. Each experiment includes controls comprising recombinant EPO as a positive control agent and wells without addition of cytokine as negative control agent. […]
At day 4, prior to start of the analysis, a dilution series of a known number of TF-1 cells is prepared in a number of wells (0/2500/5000/10000/20000/50000 cells/well in 100 μl medium). These wells are treated in the same way as the test wells and later provide a calibration curve from which cell numbers can be determined. […] 25 μl of 10% sodium dodecyl sulfate in water are added to each well prior to measurement E492 in an ELISA Reader.
Using graphical evaluations as shown in FIGS. 17 and 18 based on calculations of the dose-response relationship using the program GraphPad the following EC50 values were determined on the basis of MU-assay data: […]

Assay [3] concerns the target T1, erythropoietin receptor (EPOR) on human TF-1 cells (human, UniProt P19235 25-508).
T1 sequence (looked up): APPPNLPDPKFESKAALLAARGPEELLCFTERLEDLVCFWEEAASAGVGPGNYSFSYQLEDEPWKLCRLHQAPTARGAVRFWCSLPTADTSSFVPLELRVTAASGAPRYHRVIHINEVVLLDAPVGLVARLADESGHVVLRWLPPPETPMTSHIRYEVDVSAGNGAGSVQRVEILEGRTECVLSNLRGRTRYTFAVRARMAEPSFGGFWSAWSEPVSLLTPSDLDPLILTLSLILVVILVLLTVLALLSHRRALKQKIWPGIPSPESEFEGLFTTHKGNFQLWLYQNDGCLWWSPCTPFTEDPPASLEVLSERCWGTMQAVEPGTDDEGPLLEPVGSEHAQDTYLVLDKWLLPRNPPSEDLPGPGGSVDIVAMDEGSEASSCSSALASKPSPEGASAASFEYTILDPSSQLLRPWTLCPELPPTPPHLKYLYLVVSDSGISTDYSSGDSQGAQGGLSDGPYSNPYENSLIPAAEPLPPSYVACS
In words: cell-based or functional assay.

The results in this text go back to patent US20100145006A1, “SUPRAVALENT COMPOUNDS” (priority 2005, published 2010).

Bridges are numbered along the chain shown (N, C = ends). Where no end group is shown, it is not given here. Side-chain parts run from the residue outwards. [ ]: non-standard residue; d: D form. 1Nal = N[C@@H](Cc1cccc2ccccc12)C(=O)O

As to “GGTYSCHFGKLTWVCKKQGG [SEQ ID NO 2, EPO mimetic peptide monomer]”, the “efficacy and potency compared with other EPO mimetic peptides” value in assay [1] is “in the same range as EMP1”.

“Ac-GGTYSCHFGKLT-Na1-VCKKQRG-Am (Ac-GGTYSCHFGKLT[1Nal]VCKKQRG-NH2; cysteine pairing not given here) [BB68]”: the “efficacy and potency compared with other EPO mimetic peptides” value in assay [1] is “even more effective than EMP1 and 8849”; in assay [1] (listed as B868), “improved effect”. For “AGEM40_HES: peptide (AGEM40) HESylated according to the supravalence principle (Ac-C([maleimide-HES 130 kD])GGTYSCHFGKLT[1Nal]VCKKQRGGGTYSCHFGKLT[1Nal]VCKKQRG-NH2; disulfide 7-16, 27-36 (inferred))”, the “efficacy and potency compared with other EPO mimetic peptides” value in assay [1] is “highly effective and potent”. As to GGTYSCHFGGLTWVCKPQGG, in assay [2], the “EC50 values of exemplary peptide monomers” value is reported as “no activity”. Take Ac-GGTYSCHFGKLTWVCKKQGG (disulfide 6-15 (inferred)) [SEQ ID NO 2 peptide GGTYSCHFGKLTWVCKKQGG (BB49, monomer)]: the “EC50, TF-1 cell proliferation (MTT assay)” value in assay [3] amounted to 3.28 µM. On the same count and under the same terms, the value for GGTYSCHFGRLTWVCKPQGG (disulfide 6-15 (inferred)) [SEQ ID NO 5 peptide GGTYSCHFGRLTWVCKPQGG] was 5.16 µM; that for GGTYSCHFGRLTWVCKKQGG (disulfide 6-15 (inferred)) [SEQ ID NO 6 peptide GGTYSCHFGRLTWVCKKQGG] was 4.97 µM. Still for that read-out and setting: in the case of GGTYSCHFGPLTWVCKKQGG (disulfide 6-15 (inferred)) [peptide GGTYSCHFGPLTWVCKKQGG] it was 2.52 µM; in that of GGTYSCHFGKLTWVCKPQGG (disulfide 6-15 (inferred)) [SEQ ID NO 4 peptide GGTYSCHFGKLTWVCKPQGG], 4.66 µM; in that of GGTYSCHFAKLTWVCKKQGG (disulfide 6-15 (inferred)) [peptide GGTYSCHFAKLTWVCKKQGG], 5.04 µM.
